Experimental data: US20150299268A1 (UNIVERSITY OF MARYLAND BALTIMORE, published 2015)

Assays:
gp120-JR4-ScFV [1] = test: ELISA
BaL-gp120 [2] = molecular target: T1, BaL-gp120 (HIV-1 BaL); test: ELISA
T1 construct: domain: gp120; also called monomeric gp120; monomeric BaL gp120

FLSC R/T = molecular target: T2, FLSC R/T (HIV-1, UniProt P01730 26-208); test: ELISA
T2 construct: not shown: linker of FLSC not described

gp120-b12-ScFV = test: ELISA
gp120-JR4-ScFV [3] = test: ELISA; remark: listed apart in the source
gp120-JR48.1-ScFV = test: ELISA
BaL-gp120 [4] = molecular target: T1, BaL-gp120; test: capture ELISA
BaL-gp120-E31A = molecular target: T3, BaL-gp120-E31A (HIV-1 BaL); test: capture ELISA
T3 construct: domain: gp120

BaL-gp120-E32A = molecular target: T4, BaL-gp120-E32A (HIV-1 BaL); test: capture ELISA
T4 construct: domain: gp120

BaL-gp120-K33A = molecular target: T5, BaL-gp120-K33A (HIV-1 BaL); test: capture ELISA
T5 construct: domain: gp120

BaL-gp120-W35A = molecular target: T6, BaL-gp120-W35A (HIV-1 BaL); test: capture ELISA
T6 construct: domain: gp120

BaL-gp120-Y39A = molecular target: T7, BaL-gp120-Y39A (HIV-1 BaL); test: capture ELISA
T7 construct: domain: gp120

BaL-gp120-Y40A = molecular target: T8, BaL-gp120-Y40A (HIV-1 BaL); test: capture ELISA
T8 construct: domain: gp120

BaL-gp120-V44A = molecular target: T9, BaL-gp120-V44A (HIV-1 BaL); test: capture ELISA
T9 construct: domain: gp120

BaL-gp120-W45A = molecular target: T10, BaL-gp120-W45A (HIV-1 BaL); test: capture ELISA
T10 construct: domain: gp120

BaL-gp120-K46A = molecular target: T11, BaL-gp120-K46A (HIV-1 BaL); test: capture ELISA
T11 construct: domain: gp120

BaL-gp120-E47A = molecular target: T12, BaL-gp120-E47A (HIV-1 BaL); test: capture ELISA
T12 construct: domain: gp120

BaL-gp120-E47AE91A = molecular target: T13, BaL-gp120-E47AE91A (HIV-1 BaL); test: capture ELISA
T13 construct: domain: gp120

BaL-gp120-F53A = molecular target: T14, BaL-gp120-F53A (HIV-1 BaL); test: capture ELISA
T14 construct: domain: gp120

BaL-gp120-D57A = molecular target: T15, BaL-gp120-D57A (HIV-1 BaL); test: capture ELISA
T15 construct: domain: gp120

BaL-gp120-D57AD62A = molecular target: T16, BaL-gp120-D57AD62A (HIV-1 BaL); test: capture ELISA
T16 construct: domain: gp120

BaL-gp120-D57AD78A = molecular target: T17, BaL-gp120-D57AD78A (HIV-1 BaL); test: capture ELISA
T17 construct: domain: gp120

BaL-gp120-R58AK59A = molecular target: T18, BaL-gp120-R58AK59A (HIV-1 BaL); test: capture ELISA
T18 construct: domain: gp120

BaL-gp120-Y61A = molecular target: T19, BaL-gp120-Y61A (HIV-1 BaL); test: capture ELISA
T19 construct: domain: gp120

BaL-gp120-D62A = molecular target: T20, BaL-gp120-D62A (HIV-1 BaL); test: capture ELISA
T20 construct: domain: gp120

BaL-gp120-V68A = molecular target: T21, BaL-gp120-V68A (HIV-1 BaL); test: capture ELISA
T21 construct: domain: gp120

BaL-gp120-W69A = molecular target: T22, BaL-gp120-W69A (HIV-1 BaL); test: capture ELISA
T22 construct: domain: gp120

BaL-gp120-V75A = molecular target: T23, BaL-gp120-V75A (HIV-1 BaL); test: capture ELISA
T23 construct: domain: gp120

BaL-gp120-P76A = molecular target: T24, BaL-gp120-P76A (HIV-1 BaL); test: capture ELISA
T24 construct: domain: gp120

BaL-gp120-D78A = molecular target: T25, BaL-gp120-D78A (HIV-1 BaL); test: capture ELISA
T25 construct: domain: gp120

BaL-gp120-H105A = molecular target: T26, BaL-gp120-H105A (HIV-1 BaL); test: capture ELISA
T26 construct: domain: gp120

BaL-gp120-E106AD107A = molecular target: T27, BaL-gp120-E106AD107A (HIV-1 BaL); test: capture ELISA
T27 construct: domain: gp120

BaL-gp120-I420R = molecular target: T28, BaL-gp120-I420R (HIV-1 BaL); test: capture ELISA
T28 construct: domain: gp120; also called -1420R

BaL-gp120-I423A = molecular target: T29, BaL-gp120-I423A (HIV-1 BaL); test: capture ELISA
T29 construct: domain: gp120

BaL-gp120-T455A = molecular target: T30, BaL-gp120-T455A (HIV-1 BaL); test: capture ELISA
T30 construct: domain: gp120

BaL-gp120-R476A = molecular target: T31, BaL-gp120-R476A (HIV-1 BaL); test: capture ELISA
T31 construct: domain: gp120

BaL-gp120-R476AR480A = molecular target: T32, BaL-gp120-R476AR480A (HIV-1 BaL); test: capture ELISA
T32 construct: domain: gp120

BaL-gp120-K487AK490A = molecular target: T33, BaL-gp120-K487AK490A (HIV-1 BaL); test: capture ELISA
T33 construct: domain: gp120

BaL-gp120-I491A = molecular target: T34, BaL-gp120-I491A (HIV-1 BaL); test: capture ELISA
T34 construct: domain: gp120

BaL-gp120-E492A = molecular target: T35, BaL-gp120-E492A (HIV-1 BaL); test: capture ELISA
T35 construct: domain: gp120

BaL-gp120-P493A = molecular target: T36, BaL-gp120-P493A (HIV-1 BaL); test: capture ELISA
T36 construct: domain: gp120

BaL-gp120-L494A = molecular target: T37, BaL-gp120-L494A (HIV-1 BaL); test: capture ELISA
T37 construct: domain: gp120

BaL-gp120-G495A = molecular target: T38, BaL-gp120-G495A (HIV-1 BaL); test: capture ELISA
T38 construct: domain: gp120

BaL-gp120-V496A = molecular target: T39, BaL-gp120-V496A (HIV-1 BaL); test: capture ELISA
T39 construct: domain: gp120

BaL-gp120-P498A = molecular target: T40, BaL-gp120-P498A (HIV-1 BaL); test: capture ELISA
T40 construct: domain: gp120

BaL-gp120-T499A = molecular target: T41, BaL-gp120-T499A (HIV-1 BaL); test: capture ELISA
T41 construct: domain: gp120

BaL-gp120-K500A = molecular target: T42, BaL-gp120-K500A (HIV-1 BaL); test: capture ELISA
T42 construct: domain: gp120

BaL-gp120-dV1 = BaL-gp120-dV1 (HIV-1 BaL); test: capture ELISA
BaL-gp120-dV2 = BaL-gp120-dV2 (HIV-1 BaL); test: capture ELISA
BaL-gp120-dV3 = BaL-gp120-dV3 (HIV-1 BaL); test: capture ELISA
BaL-gp120-mV3 = BaL-gp120-mV3 (HIV-1 BaL); test: capture ELISA
core-D7 = core-D7 (HIV-1); test: capture ELISA
core-V1V2-D7 = core-V1V2-D7 (HIV-1); test: capture ELISA
core-V3-D7 = core-V3-D7 (HIV-1); test: capture ELISA
BaL-gp120-S158A = molecular target: T43, BaL-gp120-S158A (HIV-1 BaL); test: capture ELISA
T43 construct: domain: gp120

BaL-gp120-T162A = molecular target: T44, BaL-gp120-T162A (HIV-1 BaL); test: capture ELISA
T44 construct: domain: gp120; glycan mutant

BaL-gp120-S200A = molecular target: T45, BaL-gp120-S200A (HIV-1 BaL); test: capture ELISA
T45 construct: domain: gp120; also called 5200A

BaL-gp120-T303A = molecular target: T46, BaL-gp120-T303A (HIV-1 BaL); test: capture ELISA
T46 construct: domain: gp120; glycan mutant, V3 region

B1: JR4 (antibody, V domains shown)
VH: EVQLVESGPGLVKPLETLSLTCAVPGGSIRRNYWSWIRQPPGKGLEWIGHSYGSGGSTNYNPSLESRVTLSVDTSKNLFSLKLTSVTAADTAVYYCARTVWYYTSGTHYFDHWGQGVLVTVSS
VL: QSVLTQPPSVSAAPGQKVTISCSGSSSNIGRSYVSWYQQVPGAAPKLLIYDTNKRPSGVSDRFSGSKSGSSASLAITGLQTGDEADYYCGAWDGSLNVHIFGSGTKLTVL
binding result (gp120-JR4-ScFV [1]): no binding (tested: >100 fold of the Ab needed on gp120) | Fold of Ab needed for ELISA binding OD equal to half max on gp120 (BaL-gp120 [2]): 1 fold | Fold of Ab needed for ELISA binding OD equal to half max on gp120 (FLSC R/T): 0.11 fold | Fold of Ab needed for ELISA binding OD equal to half max on gp120 (gp120-b12-ScFV): 0.09 fold | Fold of Ab needed for ELISA binding OD equal to half max on gp120 (gp120-JR4-ScFV [3]): > 100 fold | Fold of Ab needed for ELISA binding OD equal to half max on gp120 (gp120-JR48.1-ScFV): 0.21 fold

B2: b12 (antibody, V domains shown)
VH: QVQLVQSGAEVKKPGASVKVSCQASGYRFSNFVIHWVRQAPGQRFEWMGWINPYNGNKEFSAKFQDRVTFTADTSANTAYMELRSLRSADTAVYYCARVGPYSWDDSPQDNYYMDVWGKGTTVIVSS
VL: EIVLTQSPGTLSLSPGERATFSCRSSHSIRSRRVAWYQHKPGQAPRLVIHGVSNRASGISDRFSGSGSGTDFTLTITRVEPEDFALYYCQVYGASSYTFGQGTKLERK
% Binding (BaL-gp120 [4]): 100% | % Binding (BaL-gp120-E31A): 86% | % Binding (BaL-gp120-E32A): 104% | % Binding (BaL-gp120-K33A): 89% | % Binding (BaL-gp120-W35A): 107% | % Binding (BaL-gp120-Y39A): 90% | % Binding (BaL-gp120-Y40A): 106% | % Binding (BaL-gp120-V44A): 94% | % Binding (BaL-gp120-W45A): 96% | % Binding (BaL-gp120-K46A): 93% | % Binding (BaL-gp120-E47A): 100% | % Binding (BaL-gp120-E47AE91A): 86% | % Binding (BaL-gp120-F53A): 91% | % Binding (BaL-gp120-D57A): 95% | % Binding (BaL-gp120-D57AD62A): 103% | % Binding (BaL-gp120-D57AD78A): 96% | % Binding (BaL-gp120-R58AK59A): 101% | % Binding (BaL-gp120-Y61A): 85% | % Binding (BaL-gp120-D62A): 98% | % Binding (BaL-gp120-V68A): 83% | % Binding (BaL-gp120-W69A): 97% | % Binding (BaL-gp120-V75A): 93% | % Binding (BaL-gp120-P76A): 96% | % Binding (BaL-gp120-D78A): 92% | % Binding (BaL-gp120-H105A): 100% | % Binding (BaL-gp120-E106AD107A): 80% | % Binding (BaL-gp120-I420R): 101% | % Binding (BaL-gp120-I423A): 96% | % Binding (BaL-gp120-T455A): 90% | % Binding (BaL-gp120-R476A): 101% | % Binding (BaL-gp120-R476AR480A): 68% | % Binding (BaL-gp120-K487AK490A): 85% | % Binding (BaL-gp120-I491A): 98% | % Binding (BaL-gp120-E492A): 105% | % Binding (BaL-gp120-P493A): 95% | % Binding (BaL-gp120-L494A): 95% | % Binding (BaL-gp120-G495A): 90% | % Binding (BaL-gp120-V496A): 100% | % Binding (BaL-gp120-P498A): 97% | % Binding (BaL-gp120-T499A): 107% | % Binding (BaL-gp120-K500A): 93% | % Binding (BaL-gp120-dV1): 90% | % Binding (BaL-gp120-dV2): 87% | % Binding (BaL-gp120-dV3): 109% | % Binding (BaL-gp120-mV3): 100% | % Binding (core-D7): 106% | % Binding (core-V1V2-D7): 103% | % Binding (core-V3-D7): 102% | % Binding (BaL-gp120-S158A): 80% | % Binding (BaL-gp120-T162A): 110% | % Binding (BaL-gp120-S200A): 86% | % Binding (BaL-gp120-T303A): 92%
